Experimental findings from patent US20090311283A1 are described below.

In one experiment the target is HLA-A*2401 (human). Nature of the experiment: competition with a 125I-labelled probe peptide for purified HLA, gel filtration; binding relative to the standard peptide. For orientation: SEC sorts molecules by how far they enter the pores of the column.
For a further experiment, the target named is HLA-A*0301 (human). Nature of the experiment: competition with 125I-labelled probe peptide for purified HLA, gel filtration; value relative to standard peptide.

For the substance “HBV ENV 177 8-mer peptide […] (peptide; other documents disagree on this pair)”, the binding affinity ratio (IC50 of standard peptide / IC50 of test peptide) with HLA-A*0201 (human) is 0.0019.
“HBV ENV 177 9-mer peptide […] (peptide; other documents disagree on this pair)”: the binding affinity ratio (IC50 of standard peptide / IC50 of test peptide) in the experiment with HLA-A*0201 (human) was determined as 0.066.
For the substance “HBV ENV 177 10-mer peptide […] (peptide; other documents disagree on this pair)”, the binding affinity ratio (IC50 of standard peptide / IC50 of test peptide) in the experiment with HLA-A*0201 (human) is 0.0011.
Consider HBV ENV 362 peptide WYWGPSLY, for which the binding affinity ratio (IC50 of standard peptide / IC50 of test peptide) with HLA-A*2401 (human) was 0.0001.
For HBV POL 377 LWDFSQF (peptide), the binding affinity ratio (IC50 of standard peptide / IC50 of test peptide) with HLA-A*0301 (human) came out at 0.0016.
In the case of “[…] (HBV ENV 249, 15-mer) (peptide; other documents disagree on this pair)”, the binding affinity ratio (IC50 of standard peptide / IC50 of test peptide) came out at 0.0018 with HLA-DRB1*1101 (human); 0.0069 in the experiment with HLA-DRB5*0101 (human); 0.032 with HLA-DRB1*0401 (human); 0.0047 with HLA-DRB1*0701 (human); 0.0026 with HLA-DRB1*0101 (human).
